Test results as given in patent US20220143148A1, “COMPOSITIONS AND METHODS FOR MODULATING CGRP SIGNALING TO REGULATE INTESTINAL INNATE LYMPHOID CELLS” (The Broad Institute, Inc., priority 2019, published 2022).

System: small intestinal immune cells
Assay: Droplet-based scRNA-seq of small intestinal immune cells (LP and PP), OVA vs PBS, clustering and differential expression
Assay type: in vivo, mouse
Conditions: cluster ID 6, PP, OVA vs PBS
From the text: To comprehensively characterize small intestinal immune cells, Applicants generated scRNA-Seq profiles for 58,067 immune cells collected from lamina propria (LP) and Peyer's patch (PP) regions at steady state and after induction of a type 2 inflammatory reaction to ovalbumin (OVA) (Brandt et al., 2003) (FIGS. 1A and 8A). To ensure sufficient representation of rare cells, Applicants combined a normalization strategy—removing by flow sorting either a portion of IgD+ naïve B cells, which are the most abundant cell type in PPs, or all CD19+ and CD3+ T cells (FIG. 8B, Methods)—with profiling of a sufficiently large number of cells number (P>0.99 to recover at least 15 cells from each cluster, Methods) by massively parallel scRNA-seq (Haber et al., 2017) (Methods). Applicants obtained 36,797 and 21,270 high quality cells passing initial filtering (Methods) from PP and LP regions, respectively.
Overall, Applicants annotated 27 cell subsets across the two compartments, spanning T cells, B cells, ILCs, dendritic cells (DCs), myeloid cells and stromal cells, in frequencies ranging from 0.07% to 14%. Briefly, Applicants first partitioned the cells from the PP regions by unsupervised clustering (Methods) into 46 clusters, retained the 97% of cells that were robustly assigned cell identities in each cluster (Methods), assigned the cells from the LP regions to the 46 clusters using a classifier (Methods), and visualized the data with scvis (Ding et al., 2018), a deep generative model-based method (FIGS. 1B and 8C, Methods). Next, Applicants identified genes that were differentially expressed between the cells in each cluster and the remaining cells (Table 1, Methods), as well as between pairs of clusters (Table 2), to elucidate identities of similar cell types/states. Applicants excluded from downstream analysis clusters mostly consisting of contaminants from epithelium, likely doublets, or cells with a small number of Unique Molecular Identifiers (UMIs) (FIGS. 1C and 8D), or lacking distinct markers (Methods). Altogether, Applicants retained 27 clusters spanning 85% of the cells and each associated with distinct marker genes (FIG. 8E, Methods).
To induce allergic reaction to OVA, 6 to 7 weeks old mice were sensitized twice, two weeks apart, with 50 μg of OVA plus 1 mg of aluminum potassium sulfate adjuvant via intraperitoneal injection. Two weeks later, mice were orally administered with 50 mg of OVA on every other day for a total of five times. 1 μg of α-CGRP peptide was administered simultaneously when indicated. Mice were deprived of food for 3-4 hours in cages with wood chip bedding for limiting antigen degradation in the stomach before each intragastric challenge.
Isolation of cells from Peyer's patches (PPs). Peyer's patches (PPs) were carefully dissected from the small intestine under a stereo microscope using a fine scissor, pierced once with a fine forcep. Tissues were digested in freshly made digestion buffer (RPMI-1640 containing 100 μg/ml Liberase™ and 50 μg/ml DNase I at 37° C. on a roto-mixer. After 15 min, tissues were very gently mixed using a 1 ml pipette. The supernatant was collected and added to ice-cold MACS buffer (pH 7.4; PBS plus 2% FCS and 2 mM EDTA). Pre-warmed (37° C.) fresh digestion buffer was added to the remaining tissues. After rotation at 37° C. for 15 min, the mixture was vigorously mixed using a 1 ml pipette for 1 min. Supernatants from the two steps were combined and passed through 70 μm filters and stained for FACS (below).
Isolation of cells from the lamina propria (LP). The small intestines were opened longitudinally and washed in ice-cold PBS. For scRNA-seq, roughly 0.5 cm of fragments from each of the distal, middle and proximal regions without visible PPs were collected. Epithelial cells were dissociated by tissue rotation in pre-warmed (37° C.) PBS containing 10 mM EDTA at 37° C. for 15 min, followed by additional incubation on ice for 15 min. Tissues were then shaken vigorously. […]

B1: OVA (protein, UniProt P01012 2-386, looked up)
Ovalbumin: GSIGAASMEFCFDVFKELKVHHANENIFYCPIAIMSALAMVYLGAKDSTRTQINKVVRFDKLPGFGDSIEAQCGTSVNVHSSLRDILNQITKPNDVYSFSLASRLYAEERYPILPEYLQCVKELYRGGLEPINFQTAADQARELINSWVESQTNGIIRNVLQPSSVDSQTAMVLVNAIVFKGLWEKAFKDEDTQAMPFRVTEQESKPVQMMYQIGLFRVASMASEKMKILELPFASGTMSMLVLLPDEVSGLEQLESIINFEKLTEWTSSNVMEERKIKVYLPRMKMEEKYNLTSVLMAMGITDVFSSSANLSGISSAESLKISQAVHAAHAEINEAGREVVGSAEAGVDAASVSEEFRADHPFLFCIKHIATNAVLFFGRCVSP
Dnajc7: LN (average fold change): 0.197
Dusp1: LN (average fold change): −0.366
Dusp5: LN (average fold change): −0.167
Dusp18: LN (average fold change): −0.789
Egr1: LN (average fold change): −0.987
Emp3: LN (average fold change): 0.172
Erdr1: LN (average fold change): −0.520
Fabp2: LN (average fold change): −1.495
Fam46c: LN (average fold change): −0.440
Filip1l: LN (average fold change): −0.295
Fkbp5: LN (average fold change): 0.573
Fosb: LN (average fold change): −0.556
Fosl2: LN (average fold change): −0.387
Foxp1: LN (average fold change): −0.169
Fyn: LN (average fold change): −0.230
Gapdh: LN (average fold change): 0.206
Gapt: LN (average fold change): −0.204
Gnb1: LN (average fold change): −0.247
Grasp: LN (average fold change): −0.617
Gtf2i: LN (average fold change): 0.283
H2-Aa: LN (average fold change): 0.220
H2-Ab1: LN (average fold change): 0.238
H2-Eb1: LN (average fold change): 0.228
H2afj: LN (average fold change): 0.166
Hes6: LN (average fold change): 0.290
Hist1h1c: LN (average fold change): 0.792
Hist2h4: LN (average fold change): 1.036
Ier2: LN (average fold change): −0.265
Ier5: LN (average fold change): 0.332
Ifi30: LN (average fold change): 0.256
Ifrd1: LN (average fold change): −0.459
Igha: LN (average fold change): 0.596
Igkc: LN (average fold change): 0.194
Itpkb: LN (average fold change): −0.230
Jun: LN (average fold change): 0.499
Junb: LN (average fold change): −0.174
Jund: LN (average fold change): −0.422
Kdm6b: LN (average fold change): −0.488
Klf4: LN (average fold change): −0.763
Klk1: LN (average fold change): 0.243
Kmt2e: LN (average fold change): −0.156
Lag3: LN (average fold change): 0.315
Lgals1: LN (average fold change): 0.174
Lmnb1: LN (average fold change): −0.415
Ly6c1: LN (average fold change): −0.173
Lyz1: LN (average fold change): −1.858
Mcl1: LN (average fold change): −0.199
Mcpt1: LN (average fold change): 0.479
Mcpt2: LN (average fold change): 0.749
Mir142hg: LN (average fold change): −0.649
Mpeg1: LN (average fold change): 0.185
Napsa: LN (average fold change): 0.245
Neat1: LN (average fold change): 0.364
Nfkbia: LN (average fold change): −0.191
Nfkbiz: LN (average fold change): −0.288
Npc2: LN (average fold change): 0.166
Nr4a1: LN (average fold change): −0.422
Nr4a3: LN (average fold change): −0.556
Odc1: LN (average fold change): −0.325
Os9: LN (average fold change): 0.265
Pik3ip1: LN (average fold change): 0.445
Pim1: LN (average fold change): −0.188
Plek: LN (average fold change): −0.205
Plekho2: LN (average fold change): −0.406
Pltp: LN (average fold change): 0.260
Pnrc1: LN (average fold change): −0.212
Ppia: LN (average fold change): 0.186
Ppp1r16b: LN (average fold change): −0.419
Ppp2ca: LN (average fold change): −0.356
Psap: LN (average fold change): 0.202
Ptp4a1: LN (average fold change): −0.201
Ptpre: LN (average fold change): −0.452
Rel: LN (average fold change): −0.305
Rgs1: LN (average fold change): 0.548
